From publication PMC6193675 (PLoS ONE, 2018)

B1: reconstructed predicted precursor form of antibody 447-52D (antibody, V domains shown)
VH: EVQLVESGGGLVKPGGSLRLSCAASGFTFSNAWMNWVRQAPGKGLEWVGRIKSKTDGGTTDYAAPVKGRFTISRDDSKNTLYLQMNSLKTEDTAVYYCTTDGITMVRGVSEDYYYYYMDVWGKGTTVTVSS
VL: QSVLTQPPSVSAAPGQKVTISCSGSSSNIGNNYVSWYQQLPGTAPKLLIYDNNKRPSGIPDRFSGSKSGTSATLGITGLQTGDEADYYCGTWDSSLSAGWVFGGGTKLTVL
notes: V(D)J segments with the highest identity to mature 447-52D (IgBLAST), mature HCDR3 kept; Detected with anti-human secondary antibodies; also called precursor for antibody 447-52D; 447-52D precursor; source: HEK293T, transfected, purified
B2: reconstructed predicted precursor form of antibody VRC01 (antibody, V domains shown)
VH: not shown
VL: EIVLTQSPATLSLSPGERATLSCRASQSVSSYLAWYQQKPGQAPRLLIYDASNRATGIPARFSGSGSGTDFTLTISSLEPEDFAVYYCQQRSNWPYTFGQGTKLEIK
notes: V(D)J segments with the highest identity to mature VRC01 (IgBLAST), mature HCDR3 kept; Detected with anti-human secondary antibodies; also called precursor for antibody VRC01; VRC01 precursor; source: HEK293T, transfected, purified

Target: yeast-displayed unmodified gp140 from HIV strain YU2, fused at its C-terminal to Aga2p (HIV-1 group M subtype B, isolate YU-2, UniProt P35961, strain)
Experiment: flow cytometry on cells; yeast cells displaying YU2 Env-Aga2p fusions incubated with 100 nM precursor antibody at 4°C for 16-18 h in PBI (PBS pH 7.2, 1% BSA, protease inhibitors); fluorescent secondary antibody
Settings: one partner purified

| Binder | binding result |
| --- | --- |
| B1 | no binding (tested: 100 nM) |
| B2 | no binding (tested: 100 nM) |
